Source: paper doi:10.1101/2025.03.17.643633 (bioRxiv, 2025)

Molecular target: T1, TIE1 ectodomain, aa 21-760 (human, UniProt P35590-1 21-760)
T1 sequence: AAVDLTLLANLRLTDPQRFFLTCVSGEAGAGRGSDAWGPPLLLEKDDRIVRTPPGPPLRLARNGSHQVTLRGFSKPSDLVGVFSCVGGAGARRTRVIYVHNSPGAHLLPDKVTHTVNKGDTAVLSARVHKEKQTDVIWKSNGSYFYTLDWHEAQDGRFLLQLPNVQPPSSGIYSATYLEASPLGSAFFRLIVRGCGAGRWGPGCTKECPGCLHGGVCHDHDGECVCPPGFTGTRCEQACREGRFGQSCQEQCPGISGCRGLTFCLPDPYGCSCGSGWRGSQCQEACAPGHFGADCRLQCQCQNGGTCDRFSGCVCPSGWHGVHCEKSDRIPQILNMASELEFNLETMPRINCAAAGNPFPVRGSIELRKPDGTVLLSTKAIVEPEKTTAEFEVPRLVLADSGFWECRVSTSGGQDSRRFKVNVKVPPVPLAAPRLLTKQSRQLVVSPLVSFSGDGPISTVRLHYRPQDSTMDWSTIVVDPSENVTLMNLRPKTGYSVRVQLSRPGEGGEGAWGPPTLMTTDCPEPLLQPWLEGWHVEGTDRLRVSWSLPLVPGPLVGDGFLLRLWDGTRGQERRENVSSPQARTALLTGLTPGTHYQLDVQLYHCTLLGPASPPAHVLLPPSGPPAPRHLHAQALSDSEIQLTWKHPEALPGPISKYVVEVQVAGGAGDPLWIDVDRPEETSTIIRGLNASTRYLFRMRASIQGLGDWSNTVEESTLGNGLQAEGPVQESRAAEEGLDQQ
Experiment: SPR

B1: Human SVEP1-Strep II recombinant protein, CCP15 to CCP24, aa 2261-2890 (70 kDa version) (domain or fragment)
chain: PLDCGKPPPIQNGFMKGENFEVGSKVQFFCNEGYELVGDSSWTCQKSGKWNKKSNPKCMPAKCPEPPLLENQLVLKELTTEVGVVTFSCKEGHVLQGPSVLKCLPSQQWNDSFPVCKIVLCTPPPLISFGVPIPSSALHFGSTVKYSCVGGFFLRGNSTTLCQPDGTWSSPLPECVPVECPQPEEIPNGIIDVQGLAYLSTALYTCKPGFELVGNTTTLCGENGHWLGGKPTCKAIECLKPKEILNGKFSYTDLHYGQTVTYSCNRGFRLEGPSALTCLETGDWDVDAPSCNAIHCDSPQPIENGFVEGADYSYGAIIIYSCFPGFQVAGHAMQTCEESGWSSSIPTCMPIDCGLPPHIDFGDCTKLKDDQGYFEQEDDMMEVPYVTPHPPYHLGAVAKTWENTKESPATHSSNFLYGTMVSYTCNPGYELLGNPVLICQEDGTWNGSAPSCISIECDLPTAPENGFLRFTETSMGSAVQYSCKPGHILAGSDLRLCLENRKWSGASPRCEAISCKKPNPVMNGSIKGSNYTYLSTLYYECDPGYVLNGTERRTCQDDKNWDEDEPICIPVDCSSPPVSANGQVRGDEYTFQKEIEYTCNEGFLLEGARSRVCLANGSWSGATPDCVPVR
  Kd: 62.5 nM
